Data taken from the nanobody polyreactivity screen of Harvey et al. (2022).

Experiment: yeast display, Sf9 membrane polyspecificity reagent, FACS + sequencing; frameworks hold sequencing errors
How it was run: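 Sorting gates, low and high (top ~1%), were placed on anti-HA fluorescence to track expression and on streptavidin fluorescence to track reagent binding. A clone's polyreactivity label is taken from the gate it came out of. The reagent was 10% biotinylated, detergent-solubilized Sf9 membrane, applied for 1 hour at 4 °C to galactose-induced yeast display cells.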

Sequence	polyreactivity (PSR sort gate)
QIQLVESGGWLVQAGGSLRLRCAASGNTIHWNVMVWYRQPPGKERELVATITFSGSSTYYADSVKGRFTISRDNAKNTVYLQMNSLQPEDTAVYFCNATRYRLRPSGVRYKYNYWGQGTQGTVSS	low polyreactivity
QVQLVESGGGLVQAGGSLRLSCAASGSIFAWYAMGWYRQAPGKERELVATITWSGGSTYYADSVKGRFTISRDNAKNTVYLQMNSLKPEDTAVYYCAAEVVGIWYDLWYQGDYWGQGTQVTVSS	low polyreactivity
QVQLVESWGGLVQAGGSLRLSCAASGIIRSNAMGWYRQAPGKERELVAVISSSGGRTYYADSVKGRFTISRDNAKNTVYLQMNSLKPEDTAVYYCAAQVQVGAFSYYYWGQGTQVTVSS	high polyreactivity
QVQLVESGGGLVQAGGSLRLSCAASGFIFDKYAMGWYRQAPGKERELVATITSGGSTYYADSVKGRFTISRDNAKNTVYLQMNSLKPEDTAVYYCAALDYGYRWYRYYYWGQGTQVTVSS	high polyreactivity
QVQLVESGGGLVQAGGSLRLSCAASGITFIGYAMGWYRQAPGKERELVAAITTNGGGTYYADSVKWRFTISRDNAKKTVYLQMNSLKPEDTAVYYCNAVKQRSSIFDYWGQGSQVTVSS	low polyreactivity
QVQLVESGGGLVQAGGSLRLICAASGSTFAYNTMGWYRPAPGKERELVAAISWRGTRTYYADSVKGRFTISRDNAKNTVYLQMNSLKPEDTAVYYCATKYGISYDYWGLGTQVTVSS	high polyreactivity
QVQLVESGGGLVQAGGSLRLSCAASGSTFATDAMGWYRQAPGTERELVAVISRSGGSTYYADSVKGRFTISRDNAKNTVYLQMNSLKPEDTAVYYCAARLVNKSRWGTLRYDYWGQGTQVTVSS	high polyreactivity
QVQLVESGGGLVQAGASLRLSCAASGSTLSYAMGWYRQAPGKERELVAAISRSGGSTYYADSVKGRFTISRDNAKNTVYLLMNSLKPEDTAVYYCAADPYPSYANGGYYWGQGTQVTVSS	low polyreactivity
QVQLVESGGGLVQAGGSLRLSCAASGSTSWRNTMGWYRQAPGKERELVAAIRNVGSTYYADSVKGLFTISRDNAKNTVYLQMNSLKPEDTAVYYCNARWRFLYDYWGQGTQVTVSS	high polyreactivity
QVQLVESGGGLVQAGGSLRLSCAASGRIFGVYAMGWYRQAPGKERELVAAISFSGGRTYYADSVKGRFTISRDNAKNTVYLQMNSLKAEDTAVYDCAALGPYDWLWAGDYWGQGTQVTVSS	low polyreactivity
QVQLVESGGGLVQAGGSLRLSCAASGSTFVYYAMGWYRQAPGKEREFVAGISRSGGSTYYADSVKGRFTISRDNAKNTVYLQMNSLIPEDTAVYYCNARGGLPKYGYWGQGTQVTVSS	high polyreactivity
QVQLVESGGGLVQAGGSLRLSCAASGRTFQLYAMGWYRQAPGKERELVAAITSGGNTYYADSVKGRFTISRDNAKNTVYLQMNSLKPVDTAVYYCFLYYSRSMGYWGQGTQVTVSS	high polyreactivity
QVQLVESGGGLVQAGGSLRLSCAATGRTFSGNAMGWYRQAPAKERELVAAISRSGGTTYYADSVKGRFTISRDNAKNPVYLQMNSLKPEDTAVYYCNRGWANWLGPDDYWGQGNQVTVSS	high polyreactivity
QVQLVESGVGLVQAVGSLRISCAASGRIFQPYAMGWYRQAPGNERELVARITRRGVSTYYADSVKGRFTISRENAKNTVYLQMNSLKPEDTAVYYCAAELFGGYYYWGLGTQVTVSS	high polyreactivity
QVQLVESGGGLVQAGGSLRLSCAASGFTLDDNGMGWYRPAPGKECELVESITWSGGSTDYADSVKGRFTISRDTAKNTVYLQMNSLKPEDTAVYSCNVGDPIGGFLSYWGGDYWGQGTQVTVSS	low polyreactivity
QVQLVESGGGLVQAGGSHRLSCAASGSIFNRYAMGWYRQAPGKERELVAAITAGGSSTYYADSVKGRFTISRDNAKNTVYLQMNSLKPEDTAVYYCNAVWWHPKDYDYWGQGTQVTVSS	low polyreactivity
QVQLVESGGGLVQAGGSLRLSCAASGIIFPLYAMGWYRQAPGKDRELVADITRVGSTYYADSVKGRFTISRDNAKNTVYLQMNSLKPEDTAVYYCNKQKRWTYSHYFPTTYDYWGQGTQVTVSS	high polyreactivity
QVQLVESGGGLVQAGGSLSLSCAASGLTFRSYTMGWYRQAPGKERELVAAISSGGSTYYADSVKGRFTISRDNAKNTVYLQMNSLKPEDTAVYYCAAPRGHGKYYSWGQGTQVTVSS	high polyreactivity
QVQLVESGGGLVQAGGSLRLSCAASGITFWKYAMGWYRQAPGKERELVAAISGRGGSTYYADSVKGRFTISRDNAKNTVYLQMNSLKPEDTAVYSCDTRTYYRYPVFYWGQGTQVTVSS	high polyreactivity
QVQLVESGGGLVQAGGSLRLSCAASGSTFYIYAMVWYRQAPGKERELVAAITGTGGSTYYADSVKGRFTISRDNAKNSVYLQMNSLKPEDTAVYYCAVGFGYYYKYGYWGQGTQVTVSS	low polyreactivity
QVQLVESGGGLVQAGGSLRLSCAASGSIFIPYAMGWYRQAPGKERELVAAIRDSGASTYYADSVKGRFTISRDNAKNTVYLQMNSLKPEDTAVYYCAVRFYDWRYYYWGQGTQVTVSS	high polyreactivity
QVQLVDSGGGLVQAGGSHRLSCAASGSTFRRNAMGWYRQAPGKERELVAAITRGGSTNYADSVKGRFTISRDNAKNTVYLQMNSLNPEDTAVYYCARVYLGAYRERYVYPYDYWGQGTQVTVSS	high polyreactivity

Sequence	polyreactivity (PSR sort gate)
QVQLVESGGGLVQAGGSLRLSCAASGISFYLYAMGWYRQAPGKERELVAAISWRGDSTYYADSVKGRFTISRDNAKNTVYLQMNSLKPEDTAVYYCAADLLPLYDYWGQGTQVTGSS	high polyreactivity
QVQLVESGVGLVQAGGSLRLSCAASGRIFNRYAMGWYRQAPGKERELVAAITGSGGRTYYADSVKGRFTISRDNAKNTVYVVRISMKPEDTAVYFCAKYYPEYPAYGRGDYWGQGTQVTVSS	low polyreactivity
QVQVVESGGGLVQAGGSLSLSCAASGSTVGKYAMGWYRPAPGKERELVASITWSGASTFYADSVKGRFTISRDTAKTTVYLQLNSLKPEDTAVYYCAARSYKSYYIFDYWGQGTQVTVSS	low polyreactivity
QVQLVESGGGLVQAGGSLRLSCAASGFIIDCYAMGRYRQAPGKERELVAVISQRGSNTYYADSVKGRFTISRDHAKNTVYLQMNSLKPEDTAVYYCAARYKQGDSTGGRMNYWGQGTQVTVSS	high polyreactivity
QVQLVESGGGLVQAGGSLRLSCAASGNTFHTYTMGWYRQAPGKERELVAVITRSGGRTYYADSVKGRFTISRDNAKNTVYLQMNSLKPEDTAVYYCAVLGAGQTWLDYWGQGTQVTVSS	high polyreactivity
QVQLVESGGGLLQAGGSLRISCAASGITFVYYVMGWYRQAPRKERELVAGISSGGSTYYADSVKGRFTISRDNAKNTVYLQMISLKPEDTAVYYCNAVDTYGLWRRYNYWGQGTQVTVSS	high polyreactivity
QVQLVESGGGLVQAGGSLRLSCAASARTFSRSALGWARQAPGKERELVAAISWSGGSTYYADSVKGRFTISRDKAKNSVYLQMNSLNPEDTAVYYCAAYSRWLPAYDYWGQGTQVTVSS	high polyreactivity
QVQLVESGGGLVQAGGSLRLSCAASGRTFESNAMGWYRQAPGKERELVAAISYGGGTTHYADSVKGRFTISRDNAKNTVYLQMNSLKPEDTAVYYCAADPEHQWESVTIGEYDYWGQGTQVTVSS	low polyreactivity
QVQLVESGGGLYQAGGSLRLSCAASGFILSTNVMGWYRQAPGKEREKVAAISARGGSTYYADSVKGRFTISRDNAKNTVYLQMNILKPEDTAVYYCAARVYVSRSKRLNYWGQGTQVTVSS	high polyreactivity
QVQLVESGGGLVQAGGSLRLSCAASGIIFSFYAMGWYRQAPGKERELVADITLSGGRTYYADSVKGRFTISRDNAKNTVYLQMNSLKPEDTAVYYCNDETYERGDYWGQGTKVTVSS	high polyreactivity
QVQHVESGGGLVQAGGSLRLSCAASGGIFERKDMGWYRQAHGKERQLVAGISSVGSTNYADSVKWRFTISRDNAKNTVYLQMNSLKPEDTAVYYCAAKRVRALYVGSEGGYWGQGTQVTVSS	low polyreactivity
QVQLVESGGGLVQAGGSLRLSCAASGLTFSVYAMGWYRQAPGKERELVAAISGSGGSTYYADSVKGRFTISRDNAKNTVYLQMNSLKPEDTAVYYCAARYDVHYDGMDYWGLGTQVTVSS	low polyreactivity
QVQLVESGGGLVQAGGSRRLSCAASGIIFYPNAMGWYRQAPGKERELVAAITSDGSTYYADSVKGRFTISRDNAKNTVYLQMNSLKPEDTAVYYCAAWDDYGYDYWGQGTQVTVSS	low polyreactivity
QVQLVESGGGLVQAGGSLRLSCAASGLTFYYNAMGWYRQAPGKERELVAAITRGTSTHYADSVKWRFTISRDNAKNTVYLQMNSLKPEDTAVYYCAAPYRYSWWRGDYWGQGTQVTVSS	high polyreactivity
QVQLVESGGGLVQAGGSLRLSCAASGIIFWRYAMGWYRQAPGKERELVAAIRYRAGSTYYADSVKGRFTISRDNAKNTVYLQLNSLKPEDTAVYYCAAGWWTSPDRRGGDYWGQGTQVTVSS	high polyreactivity
QVQFVESGGGLVQAGGSLRLSCAASGSIFIYNAMGWYRQAPGTERELVAAISRGGTNTYYADSVKGRFTISRDNAKNTVYLQMNSLKPEDTAVYYCAARGGYIGSRNNYWGQGTQVTVSS	high polyreactivity
QVQLVESGGGLDQAGGSLRLSCAASGITFKSYAMGWYRQAPGKERELVAAITYRSGSTYYADSVKGRFTISRDNAKNTVYLQMNSLKPEDTAVYYCAVGGKFQIQTYYQRYNYWGQGTQVTVSS	high polyreactivity
QVQLVESGGGLVQAGGSLRLSCAASGRIFRPYAMGWYRQAPGKERELVAAISVSGVITYYADSVKGRFTISRDNAKNTVYLQMNSLKPEDTAVYYCARRSSTRYFYGWYDYWGQGTQVTVSS	low polyreactivity
QVQLVESGGGIVQAGGSLRLSCAASGRIFDEYAMGWYRLAPGKERELVAAITYSAGSTYYADSVKGRFTISRDNAKNTVYLQMNSLKPEDTAVYYCAADRYYWWWYTYNYWGQGTQVTVSS	low polyreactivity
QVQLVESGGGLVQAGGSLRLSCAASGGTFVYYTMGWYRQAPGKERELVAAISGRGGRTYYADSVKGRFTISRDNAKQTVYLQMNSLKPEDPAVYYCTATQIGPYYLPFDSWGQGTQVTVSS	high polyreactivity
QVQLVESGGGLVQAGGSLRLSCAASGSTIRQNAMGWSSQAPGKEMELVAAITYTGGSTYYADSVKGRYTISRDNAKNTVYLEMNSLKPEDTSVYYCAATYLSYYHGWVNYWGEGTQVTVSS	high polyreactivity
